Biological target: HLA-DR15 (HLA-DRB1*1501) (Homo sapiens, UniProt P01903+P01911)
Test: Competitive ELISA against biotinylated pp65 (pp65bio) for binding to HLA-DR
Details: pp65bio 150 nM, HLA-DR15 150 nM, non-biotinylated competitor 7.8 nM - 1 μM, HLA-DM 150 nM, PBS, 37°C, 18 h, triplicate, ± SD, read-out: IC50 in competition with pp65bio for HLA-DR15

MBP85-97: myelin basic protein peptide 85-97 fused to C-terminus of bacterial thioredoxin through (SGGGG)3S linker with His-tags (PVVHFFKNIVTPR; not fully specified; C-terminal fusion to thioredoxin via (SGGGG)3S linker (left out))
IC50: 120 ± 20 nM
